In article PMC9482650, “Quantitative fragmentomics allow affinity mapping of interactomes” (Nature Communications, 2022):
One block for each binder: values may come before it.

Key:
Test in all cases: holdup assay
Parameters in all cases: key: below the threshold = too weak to quantify, mostly under pKd 3.1 to 4
ARHGEF11, O15085 = target: T1, ARHGEF11, O15085
T1 sequence (O15085 42-136, limits assumed, looked up): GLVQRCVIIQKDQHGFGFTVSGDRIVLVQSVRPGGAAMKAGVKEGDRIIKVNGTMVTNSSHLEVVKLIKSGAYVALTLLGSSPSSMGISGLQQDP

DFNB31_1, Q9P202 = target: T2, DFNB31_1, Q9P202
T2 sequence (Q9P202 135-233, limits assumed, looked up): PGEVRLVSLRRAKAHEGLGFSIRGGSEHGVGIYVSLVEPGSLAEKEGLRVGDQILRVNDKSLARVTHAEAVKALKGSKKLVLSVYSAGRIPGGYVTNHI

DFNB31_3, Q9P202 = target: T3, DFNB31_3, Q9P202
T3 sequence (Q9P202 811-907, limits assumed, looked up): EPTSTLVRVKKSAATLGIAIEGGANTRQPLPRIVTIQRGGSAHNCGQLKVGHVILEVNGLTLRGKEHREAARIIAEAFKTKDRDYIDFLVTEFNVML

DLG1_1, Q12959 = target: DLG1_1, Q12959
DLG1_3, Q12959 = target: DLG1_3, Q12959
DLG2_2, Q15700 = target: DLG2_2, Q15700
DLG4_2, P78352 = target: DLG4_2, P78352
DLG5_1, Q8TDM6 = target: DLG5_1, Q8TDM6
DVL3, Q92997 = target: T4, DVL3, Q92997
T4 sequence (Q92997 244-331, limits assumed, looked up): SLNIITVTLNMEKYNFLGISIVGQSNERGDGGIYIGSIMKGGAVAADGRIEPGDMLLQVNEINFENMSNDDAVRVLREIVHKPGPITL

FRMPD2_2, Q68DX3 = target: FRMPD2_2, Q68DX3
GRIP1_3, Q9Y3R0 = target: T5, GRIP1_3, Q9Y3R0
T5 sequence (Q9Y3R0 247-346, limits assumed, looked up): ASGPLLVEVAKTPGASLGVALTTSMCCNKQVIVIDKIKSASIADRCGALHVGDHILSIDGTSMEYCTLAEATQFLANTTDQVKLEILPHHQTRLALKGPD

GRIP2_3, Q9C0E4 = target: GRIP2_3, Q9C0E4
GRIP2_4, Q9C0E4 = target: GRIP2_4, Q9C0E4
HTRA1, Q92743 = target: HTRA1, Q92743
IL16_1, Q14005 = target: IL16_1, Q14005
Inadl_2, Q8NI35 = target: Inadl_2, Q8NI35
Inadl_8, Q8NI35 = target: Inadl_8, Q8NI35
LIMK2, P53671 = target: LIMK2, P53671
LIN7C, Q9NUP9 = target: T6, LIN7C, Q9NUP9
T6 sequence (Q9NUP9 88-185, limits assumed, looked up): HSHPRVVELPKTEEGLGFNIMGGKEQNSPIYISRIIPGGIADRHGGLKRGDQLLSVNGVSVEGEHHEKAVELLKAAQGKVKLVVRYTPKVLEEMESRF

MAGI2_3, Q86UL8 = target: MAGI2_3, Q86UL8
PARD3_3, Q8TEW0 = target: PARD3_3, Q8TEW0
PDZRN4_1, Q6ZMN7 = target: PDZRN4_1, Q6ZMN7
RAPGEF6, Q8TEU7 = target: T7, RAPGEF6, Q8TEU7
T7 sequence (Q8TEU7 525-625, limits assumed, looked up): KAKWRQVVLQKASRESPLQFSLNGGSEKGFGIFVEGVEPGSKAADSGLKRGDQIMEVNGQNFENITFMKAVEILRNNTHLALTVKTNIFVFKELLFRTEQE

RHPN1, Q8TCX5 = target: T8, RHPN1, Q8TCX5
T8 sequence (Q8TCX5 508-602, limits assumed, looked up): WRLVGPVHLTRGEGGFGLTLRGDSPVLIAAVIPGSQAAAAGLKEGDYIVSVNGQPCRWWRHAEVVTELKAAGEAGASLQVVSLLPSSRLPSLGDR

SNTG1, Q9NSN8 = target: T9, SNTG1, Q9NSN8
T9 sequence (Q9NSN8 52-150, limits assumed, looked up): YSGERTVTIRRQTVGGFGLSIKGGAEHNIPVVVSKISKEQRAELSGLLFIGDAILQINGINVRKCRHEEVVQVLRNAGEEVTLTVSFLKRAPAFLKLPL

SNTG2, Q9NY99 = target: T10, SNTG2, Q9NY99
T10 sequence (Q9NY99 68-166, limits assumed, looked up): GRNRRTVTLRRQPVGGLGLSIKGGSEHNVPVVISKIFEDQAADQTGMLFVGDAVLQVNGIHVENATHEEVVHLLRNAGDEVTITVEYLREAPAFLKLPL

TIAM2, Q8IVF5 = target: T11, TIAM2, Q8IVF5
T11 sequence (Q8IVF5 885-986, limits assumed, looked up): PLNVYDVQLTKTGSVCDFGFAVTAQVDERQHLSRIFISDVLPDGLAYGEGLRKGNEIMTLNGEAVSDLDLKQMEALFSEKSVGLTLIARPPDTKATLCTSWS

[1] = plain residues with an end cap or a label only (N-terminal biotin on a linker: ahx)
[2] = plain residues with an end cap or a label only (N-terminal biotin on a linker: ttds)

IL16_1, Q14005, sequence (Q14005 210-306): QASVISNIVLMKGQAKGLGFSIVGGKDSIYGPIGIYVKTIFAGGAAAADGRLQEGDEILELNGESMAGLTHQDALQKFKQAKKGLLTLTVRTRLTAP
GRIP2_3, Q9C0E4, sequence (Q9C0E4 238-339): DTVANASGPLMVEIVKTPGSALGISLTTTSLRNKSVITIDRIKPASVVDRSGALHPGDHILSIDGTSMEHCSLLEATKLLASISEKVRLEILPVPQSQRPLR
Inadl_8, Q8NI35, sequence (Q8NI35 1425-1530): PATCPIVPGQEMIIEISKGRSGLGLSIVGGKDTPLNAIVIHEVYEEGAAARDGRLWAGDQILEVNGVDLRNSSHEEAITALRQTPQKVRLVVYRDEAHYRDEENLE
DLG2_2, Q15700, sequence (Q15700 189-283): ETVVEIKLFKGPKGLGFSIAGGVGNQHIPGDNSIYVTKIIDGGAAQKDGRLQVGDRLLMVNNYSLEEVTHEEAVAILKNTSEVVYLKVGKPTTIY
GRIP2_4, Q9C0E4, sequence (Q9C0E4 446-548): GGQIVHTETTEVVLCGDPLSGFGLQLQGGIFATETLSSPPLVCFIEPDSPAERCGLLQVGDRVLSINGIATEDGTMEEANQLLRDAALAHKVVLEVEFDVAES
PDZRN4_1, Q6ZMN7, sequence (Q6ZMN7 213-318): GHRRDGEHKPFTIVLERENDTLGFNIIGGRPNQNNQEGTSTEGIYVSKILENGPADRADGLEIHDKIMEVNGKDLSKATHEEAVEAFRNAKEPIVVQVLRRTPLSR
MAGI2_3, Q86UL8, sequence (Q86UL8 600-682): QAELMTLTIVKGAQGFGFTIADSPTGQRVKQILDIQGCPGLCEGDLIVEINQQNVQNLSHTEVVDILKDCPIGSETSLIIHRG
FRMPD2_2, Q68DX3, sequence (Q68DX3 944-1038): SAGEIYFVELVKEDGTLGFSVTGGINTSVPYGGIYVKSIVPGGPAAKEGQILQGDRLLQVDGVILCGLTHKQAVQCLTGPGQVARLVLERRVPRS
DLG4_2, P78352, sequence (P78352 155-259): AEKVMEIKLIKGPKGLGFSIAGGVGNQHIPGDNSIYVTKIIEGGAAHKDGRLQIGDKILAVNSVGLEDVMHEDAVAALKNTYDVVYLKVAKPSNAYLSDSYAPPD
Inadl_2, Q8NI35, sequence (Q8NI35 238-335): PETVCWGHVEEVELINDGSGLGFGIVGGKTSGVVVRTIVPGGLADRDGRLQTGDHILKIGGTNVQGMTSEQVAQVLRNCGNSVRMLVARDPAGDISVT
LIMK2, P53671, sequence (P53671 143-248): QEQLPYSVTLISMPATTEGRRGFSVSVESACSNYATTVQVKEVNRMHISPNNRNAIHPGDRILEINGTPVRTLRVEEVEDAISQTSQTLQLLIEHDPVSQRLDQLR
DLG5_1, Q8TDM6, sequence (Q8TDM6 617-713): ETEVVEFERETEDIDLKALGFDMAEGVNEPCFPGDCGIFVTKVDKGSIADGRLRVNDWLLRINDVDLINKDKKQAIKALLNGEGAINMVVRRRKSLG
PARD3_3, Q8TEW0, sequence (Q8TEW0 582-685): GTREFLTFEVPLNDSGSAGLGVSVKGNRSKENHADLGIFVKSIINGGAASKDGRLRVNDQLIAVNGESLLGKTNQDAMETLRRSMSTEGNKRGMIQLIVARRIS
HTRA1, Q92743, sequence (Q92743 360-477): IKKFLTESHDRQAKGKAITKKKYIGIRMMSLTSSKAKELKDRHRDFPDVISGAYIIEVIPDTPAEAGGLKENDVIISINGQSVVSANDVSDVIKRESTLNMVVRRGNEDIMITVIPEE

- pKd (ARHGEF11, O15085; [1]): 4.06
- pKd (DFNB31_1, Q9P202; [1]): below the threshold
- pKd (DFNB31_3, Q9P202; [1]): 3.51
- pKd (DLG1_1, Q12959; [1]): 3.81
- pKd (DLG1_3, Q12959; [1]): 3.83
- pKd (DLG2_2, Q15700; [1]): 3.98
- pKd (DLG4_2, P78352; [1]): 4.15
- pKd (DLG5_1, Q8TDM6; [1]): below the threshold
- pKd (DVL3, Q92997; [1]): below the threshold
- pKd (FRMPD2_2, Q68DX3; [1]): 3.73
- pKd (GRIP1_3, Q9Y3R0; [1]): below the threshold
- pKd (GRIP2_3, Q9C0E4; [1]): below the threshold
- pKd (GRIP2_4, Q9C0E4; [1]): below the threshold
- pKd (HTRA1, Q92743; [1]): 4.3
- pKd (IL16_1, Q14005; [1]): below the threshold
- pKd (Inadl_2, Q8NI35; [1]): below the threshold
- pKd (Inadl_8, Q8NI35; [1]): 4.3
- pKd (LIMK2, P53671; [1]): below the threshold
- pKd (LIN7C, Q9NUP9; [1]): 3.47
- pKd (MAGI2_3, Q86UL8; [1]): 3.56
- pKd (PARD3_3, Q8TEW0; [1]): below the threshold
- pKd (PDZRN4_1, Q6ZMN7; [1]): below the threshold
- pKd (RAPGEF6, Q8TEU7; [1]): below the threshold
- pKd (RHPN1, Q8TCX5; [1]): 4.4
- pKd (SNTG1, Q9NSN8; [1]): 3.79
- pKd (SNTG2, Q9NY99; [1]): 3.81
- pKd (TIAM2, Q8IVF5; [1]): below the threshold
B1: PDZRN3, Q9UPQ7 (peptide)
chain: YNSFLSVTTV

- pKd (ARHGEF11, O15085; [2]): 4.3
- pKd (DFNB31_1, Q9P202; [2]): 3.65
- pKd (DFNB31_3, Q9P202; [2]): below the threshold
- pKd (DLG1_1, Q12959; [2]): 4.72
- pKd (DLG1_3, Q12959; [2]): 4.01
- pKd (DLG2_2, Q15700; [2]): 4.55
- pKd (DLG4_2, P78352; [2]): 4.69
- pKd (DLG5_1, Q8TDM6; [2]): below the threshold
- pKd (DVL3, Q92997; [2]): below the threshold
- pKd (FRMPD2_2, Q68DX3; [2]): 3.81
- pKd (GRIP1_3, Q9Y3R0; [2]): below the threshold
- pKd (GRIP2_3, Q9C0E4; [2]): 3.55
- pKd (GRIP2_4, Q9C0E4; [2]): below the threshold
- pKd (HTRA1, Q92743; [2]): below the threshold
- pKd (IL16_1, Q14005; [2]): 3.66
- pKd (Inadl_2, Q8NI35; [2]): below the threshold
- pKd (Inadl_8, Q8NI35; [2]): below the threshold
- pKd (LIMK2, P53671; [2]): below the threshold
- pKd (LIN7C, Q9NUP9; [2]): 4.03
- pKd (MAGI2_3, Q86UL8; [2]): 3.49
- pKd (PARD3_3, Q8TEW0; [2]): below the threshold
- pKd (PDZRN4_1, Q6ZMN7; [2]): 4.3
- pKd (RAPGEF6, Q8TEU7; [2]): below the threshold
- pKd (RHPN1, Q8TCX5; [2]): below the threshold
- pKd (SNTG1, Q9NSN8; [2]): 4.32
- pKd (SNTG2, Q9NY99; [2]): below the threshold
- pKd (TIAM2, Q8IVF5; [2]): below the threshold
B2: FZD7, O75084 (peptide)
chain: SHSSKGETAV
